According to the supplement of paper PMC10567573:

B1: CLPTM1 (parent)
chain: LGCYAVYSLLYLEHKGWYSWVLSM
B2: CIB1 (parent)
chain: DLSRLVNCLTGEGEDTRLSASEMK

Variants of: B1
Assay: protein stability index of a GFP-peptide fusion (GPS, HEK-293T) (PSI 1-6); higher = more stable
Conditions: c terminus: a fixed tail appended
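Also: lentivirally expressed fusions sorted by FACS into six bins by GFP to DsRed ratio, PSI derived from sequencing read proportions per bin multiplied by bin number.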

Protein stability index, by site and new letter:
S23: M 3.15, Y 2.49, F 2.11, W 3.03, Q 3.11, R 2.26, P 4.18, H 2.63, G 2.17, I 3.17, N 2.27, C 3.78, T 1.72, L 2.41, V 1.82
W20: E 3.54, G 2.21, P 3.37, M 3.21, T 2.45, H 1.87, K 2.65, S 2.21, Q 2.07, C 3.98, V 3.55, D 2.14, F 1.72, I 3.33, R 2.84, L 2.91, N 3.58
W17: Y 2.38, T 3.28
M24: T 2.61, Q 3.62, D 2.05, P 3.83, C 4.42, W 3.77, K 3.6, I 2.67, H 3.76, G 4.14, N 2.39, S 2.46, V 3.57, L 2.6, F 4.41, A 2.39, R 2.3, Y 2.41, E 5.08
S19: N 3.88, V 1.92, R 1.76, F 2.47, C 3.08, A 4.22, Q 3.63, P 2.93, G 2.71, T 3.99, W 2.66, E 2.27, I 3.66, Y 2.62, K 3.27
Y18: D 3.53, W 3.03, M 2.61, P 3.5, R 3.76, K 2.08, Q 2.56, N 3.45, G 2.21, C 1.27, I 3.27, H 2.44, F 2.61, L 2.48, V 2.95
V21: G 2.62, M 2.45, R 1.99, N 3.02, D 1.56, E 3.46, W 3.42, H 2.45, A 2.45, F 2.12, I 1.96, T 2.31, Y 2.63, C 4.16, S 3.6, L 2.77, P 3.65, K 2.12
L22: M 2.11, C 4.24, Y 3.5, Q 2.18, I 3.34, K 2.01, E 3.17, T 1.98, R 2.45, A 3.33, W 2.58, G 1.72, S 3.49, P 3.42, F 3.46

Variants of: B2
Assay: as above
Conditions: c terminus: a fixed tail appended

Protein stability index of substitutions, site by site:
E22: T 3.61, R 2.88, K 4.44, M 2.46, A 3.08, G 2.81, L 2.29, I 2.83
K24: F 2.57, H 2.37, A 3.25, S 2.89, W 1.86, N 2.99, Q 3.31, C 3.03, V 2.04, P 2.67
G13: T 3.16, N 2.71, H 3.31, E 3.07, Q 2.54, L 2.53, M 2.76, C 2.94
T16: P 4.07, D 3.58, L 3.71, H 3.5, K 3.87, F 2.07, A 2.46
T10: E 3.39, W 2.48, V 3.38, C 4.11, I 2.68, H 3.94, P 2.44, G 2.92, S 3.17, M 2.11, R 2.15
R4: Y 2.85, F 3.88, M 2.98, V 2.01, H 3.96, G 3.8, C 3.65, W 3.45, E 3.68, K 3.12
G11: K 3.49, E 3.98, C 3.16, H 3.81, R 2.9, S 3.55, F 3.35, T 2.6, I 3, L 2.88
E14: T 3.41, L 2.27, C 3.36, I 2.6, D 1.66, M 2.06, Q 3.53, Y 2.83, A 2.37, F 2.2
V6: N 4.04, W 2.64, R 3.94, M 3.61, Q 2.64
L2: D 4.32, S 5, Y 3.82, E 5.67, W 2.89, P 5.35, C 3.87, I 2.82, H 5.29
A20: D 2.92, V 2.17, W 3.38, M 2.19, F 1.8, P 3.15, S 2.9, E 4.11, Q 3.71, H 2.98, T 1.89, G 3.69, K 1.61
C8: Q 3.95, Y 2.34, L 2.21, V 3.27, S 3.63, E 3.42, G 3.77, K 1.43, D 4.3, M 3.52, P 4.28
S3: W 1.38, K 3.27, I 1.2, G 3.72, C 2.98, Y 2.79, L 2.2, M 3.1, N 2.39
S21: L 2.06, K 4.3, F 2.36, A 2.1, V 2.17, E 4.15, P 3.5, C 2.63, H 3.01
M23: Y 2.7, N 3.46, Q 2.6, V 3.17, L 3.23, C 2.85, D 2.32, F 3.12, I 3.03, H 2.71
L18: P 3.79, A 3.34, F 1.85, H 4.09, Q 2.96, K 3.36, W 2.78, M 2.49
L9: Q 3.25, E 3.09, A 1.75, H 3.78, S 2.62, I 3.04, Y 3.32, M 4.05
R17: N 2.76, F 2.99, Q 3.1, Y 2.81, W 2.33, V 2.65, A 3.68, D 4.12, L 2.59, I 2.97, P 3.35, K 2.82
E12: R 2.4, H 2.92, S 2.44, A 2.15, F 1.63, G 1.18, D 1.73
D1: I 2.3, G 3.69, A 2.84, K 4.18, F 2.77, S 2.8, R 3.68, V 1.95
S19: T 2.01, C 1.89, P 3.61, R 2.6, A 3.2, E 3.61, N 4.35, D 3.17, W 2.26
D15: T 2.12, Y 2.06, G 3.83, N 1.77, M 1.61, A 3.61, V 1.54, H 3.49, P 2.62, E 3.52
N7: A 3.12, I 2.59, E 4, P 4.6, R 3.09, W 2.2, G 2.74, S 3.63, D 4.32, T 2.62, L 3.85, K 2.84
L5: V 4, G 5, P 5.06, T 3.61
